Experimental data: the supplement of paper PMC10065799, “High-throughput profiling of sequence recognition by tyrosine kinases and SH2 domains using bacterial peptide display” (eLife, 2023)

What was measured:
[1] = tested on: AncSZ; assay: phosphorylation enrichment, bacterial display (enrichment ratio); higher = better substrate or ligand; peptides without Tyr show the background
[2] = biological target: EPHB1 (UniProt P54762); assay: as above
[3] = biological target: EPHB2 (UniProt P29323); assay: as above
[4] = biological target: FGFR1 (UniProt P11362); assay: as above
[5] = biological target: FGFR3 (UniProt P22607); assay: as above
[6] = tested on: Fer (mouse); assay: as above
[7] = biological target: Fes (UniProt P07332); assay: as above
[8] = biological target: Fyn (UniProt P06241); assay: as above
[9] = biological target: Hck (UniProt P08631); assay: as above
[10] = biological target: Jak2 (UniProt O60674); assay: as above
[11] = biological target: MERTK (UniProt Q12866); assay: as above
[12] = tested on: c-Abl (mouse); assay: as above
[13] = tested on: c-Src; assay: as above
[14] = biological target: Grb2 SH2 (UniProt P62993); assay: SH2 binding enrichment of the phosphorylated peptide, bacterial display (enrichment ratio); higher = better substrate or ligand; peptides without Tyr show the background
[15] = biological target: SHP2-C SH2; assay: as above
[16] = biological target: c-Src SH2; assay: as above
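Wherever SH2 binding enrichment of the phosphorylated peptide, bacterial display is given: peptide library displayed on the E. coli surface as eCPX fusions, selected cells deep-sequenced, score is each peptide's frequency after selection divided by its frequency in the input.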
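Wherever phosphorylation enrichment, bacterial display is given: 11-residue human phosphosite peptides and single-mutation variants displayed on the E. coli surface, counted by deep sequencing, each peptide's frequency after selection divided by its frequency in the unselected input library; frequency after pTyr selection over input frequency; kinase dosed for 20-30% of maximal phosphorylation in three min.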

Fyn, sequence (P06241 whole entry, looked up): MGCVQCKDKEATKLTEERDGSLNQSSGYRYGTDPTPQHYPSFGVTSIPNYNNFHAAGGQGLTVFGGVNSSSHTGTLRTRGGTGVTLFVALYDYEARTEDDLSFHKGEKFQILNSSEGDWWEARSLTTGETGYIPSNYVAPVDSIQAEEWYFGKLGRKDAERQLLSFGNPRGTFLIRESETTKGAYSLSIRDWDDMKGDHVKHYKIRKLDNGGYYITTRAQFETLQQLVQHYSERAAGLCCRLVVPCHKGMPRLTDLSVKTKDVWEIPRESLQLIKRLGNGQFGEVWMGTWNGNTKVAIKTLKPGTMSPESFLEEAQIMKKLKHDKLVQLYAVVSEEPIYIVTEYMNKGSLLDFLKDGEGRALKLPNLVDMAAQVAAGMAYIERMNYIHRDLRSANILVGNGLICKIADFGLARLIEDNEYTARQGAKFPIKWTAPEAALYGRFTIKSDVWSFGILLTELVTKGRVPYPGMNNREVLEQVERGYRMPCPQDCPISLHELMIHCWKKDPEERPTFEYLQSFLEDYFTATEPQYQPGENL
Jak2, sequence (O60674 whole entry, looked up): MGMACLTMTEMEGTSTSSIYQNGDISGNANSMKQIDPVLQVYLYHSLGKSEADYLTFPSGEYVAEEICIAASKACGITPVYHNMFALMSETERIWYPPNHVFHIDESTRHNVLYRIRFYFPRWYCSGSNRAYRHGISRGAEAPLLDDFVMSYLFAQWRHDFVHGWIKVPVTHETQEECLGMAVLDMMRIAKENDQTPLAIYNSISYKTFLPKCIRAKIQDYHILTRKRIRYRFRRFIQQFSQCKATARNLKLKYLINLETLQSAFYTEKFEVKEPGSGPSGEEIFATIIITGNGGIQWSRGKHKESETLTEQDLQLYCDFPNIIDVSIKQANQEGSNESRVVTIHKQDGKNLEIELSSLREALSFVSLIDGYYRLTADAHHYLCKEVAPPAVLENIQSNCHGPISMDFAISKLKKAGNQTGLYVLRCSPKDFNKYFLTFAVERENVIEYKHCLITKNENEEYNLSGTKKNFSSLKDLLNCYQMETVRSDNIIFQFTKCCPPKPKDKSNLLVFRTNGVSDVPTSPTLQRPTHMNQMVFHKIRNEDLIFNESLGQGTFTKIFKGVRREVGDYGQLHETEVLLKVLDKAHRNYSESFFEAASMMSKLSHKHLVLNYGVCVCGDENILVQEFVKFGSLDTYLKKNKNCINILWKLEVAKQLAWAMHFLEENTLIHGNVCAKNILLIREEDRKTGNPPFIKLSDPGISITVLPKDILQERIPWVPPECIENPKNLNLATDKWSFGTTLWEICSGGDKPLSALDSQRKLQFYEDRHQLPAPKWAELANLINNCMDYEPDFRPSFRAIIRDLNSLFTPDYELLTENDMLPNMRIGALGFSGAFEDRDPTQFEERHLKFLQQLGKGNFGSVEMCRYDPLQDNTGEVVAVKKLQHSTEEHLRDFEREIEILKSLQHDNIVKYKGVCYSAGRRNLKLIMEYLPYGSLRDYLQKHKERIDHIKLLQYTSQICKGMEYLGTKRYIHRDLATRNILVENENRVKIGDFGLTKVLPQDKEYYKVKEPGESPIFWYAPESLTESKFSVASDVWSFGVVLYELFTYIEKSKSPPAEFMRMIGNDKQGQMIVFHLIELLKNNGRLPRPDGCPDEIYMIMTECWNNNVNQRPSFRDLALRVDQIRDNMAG
EPHB2, sequence (P29323 whole entry, looked up): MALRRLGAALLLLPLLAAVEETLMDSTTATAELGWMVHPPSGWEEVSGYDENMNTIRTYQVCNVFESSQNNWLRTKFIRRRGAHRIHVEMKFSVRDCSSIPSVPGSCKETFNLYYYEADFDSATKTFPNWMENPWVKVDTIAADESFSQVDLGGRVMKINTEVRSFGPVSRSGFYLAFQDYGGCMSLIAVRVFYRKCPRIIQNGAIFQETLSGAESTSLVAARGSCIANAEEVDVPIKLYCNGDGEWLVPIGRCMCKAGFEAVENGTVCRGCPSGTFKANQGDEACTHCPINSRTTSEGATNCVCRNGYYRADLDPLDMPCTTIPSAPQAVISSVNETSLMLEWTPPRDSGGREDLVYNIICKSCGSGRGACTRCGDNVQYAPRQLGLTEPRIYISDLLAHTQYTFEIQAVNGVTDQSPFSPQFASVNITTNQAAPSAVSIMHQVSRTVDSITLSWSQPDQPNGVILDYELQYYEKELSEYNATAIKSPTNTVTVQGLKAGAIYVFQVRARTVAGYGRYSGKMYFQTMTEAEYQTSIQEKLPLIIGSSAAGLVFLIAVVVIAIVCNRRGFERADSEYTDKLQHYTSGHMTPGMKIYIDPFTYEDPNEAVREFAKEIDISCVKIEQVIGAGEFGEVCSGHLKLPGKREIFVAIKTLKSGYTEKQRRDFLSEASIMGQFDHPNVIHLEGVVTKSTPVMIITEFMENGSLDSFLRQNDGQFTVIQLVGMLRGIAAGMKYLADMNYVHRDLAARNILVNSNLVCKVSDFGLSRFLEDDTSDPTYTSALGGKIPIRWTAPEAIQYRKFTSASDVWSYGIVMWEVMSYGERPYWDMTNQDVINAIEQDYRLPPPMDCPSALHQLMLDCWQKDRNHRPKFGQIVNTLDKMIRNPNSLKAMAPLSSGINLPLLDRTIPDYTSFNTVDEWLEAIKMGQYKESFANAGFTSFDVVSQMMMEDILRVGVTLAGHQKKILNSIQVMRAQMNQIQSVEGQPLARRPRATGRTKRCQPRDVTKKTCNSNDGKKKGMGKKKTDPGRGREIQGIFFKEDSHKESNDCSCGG
Grb2 SH2, sequence (P62993 whole entry, looked up): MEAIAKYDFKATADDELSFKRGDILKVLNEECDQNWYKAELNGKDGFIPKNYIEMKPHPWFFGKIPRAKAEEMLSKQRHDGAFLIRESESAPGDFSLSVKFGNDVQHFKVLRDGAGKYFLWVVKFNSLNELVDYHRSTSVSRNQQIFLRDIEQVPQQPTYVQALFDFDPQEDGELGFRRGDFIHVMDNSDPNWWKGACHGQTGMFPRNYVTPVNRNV
Hck, sequence (P08631 whole entry, looked up): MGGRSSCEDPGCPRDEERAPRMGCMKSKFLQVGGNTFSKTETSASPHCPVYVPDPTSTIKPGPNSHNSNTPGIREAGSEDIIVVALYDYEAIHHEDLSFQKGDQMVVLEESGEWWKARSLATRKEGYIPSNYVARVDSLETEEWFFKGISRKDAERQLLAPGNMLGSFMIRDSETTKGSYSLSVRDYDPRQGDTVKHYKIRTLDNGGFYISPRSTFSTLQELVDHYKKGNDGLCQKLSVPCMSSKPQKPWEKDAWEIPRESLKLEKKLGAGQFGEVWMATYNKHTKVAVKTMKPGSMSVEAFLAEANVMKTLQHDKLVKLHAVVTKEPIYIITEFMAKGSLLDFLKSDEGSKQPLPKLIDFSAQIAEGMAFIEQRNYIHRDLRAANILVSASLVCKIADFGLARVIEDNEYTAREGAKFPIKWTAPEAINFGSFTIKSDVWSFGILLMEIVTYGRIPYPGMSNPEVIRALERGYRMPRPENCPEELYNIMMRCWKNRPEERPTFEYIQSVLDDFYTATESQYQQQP
Fes, sequence (P07332 whole entry, looked up): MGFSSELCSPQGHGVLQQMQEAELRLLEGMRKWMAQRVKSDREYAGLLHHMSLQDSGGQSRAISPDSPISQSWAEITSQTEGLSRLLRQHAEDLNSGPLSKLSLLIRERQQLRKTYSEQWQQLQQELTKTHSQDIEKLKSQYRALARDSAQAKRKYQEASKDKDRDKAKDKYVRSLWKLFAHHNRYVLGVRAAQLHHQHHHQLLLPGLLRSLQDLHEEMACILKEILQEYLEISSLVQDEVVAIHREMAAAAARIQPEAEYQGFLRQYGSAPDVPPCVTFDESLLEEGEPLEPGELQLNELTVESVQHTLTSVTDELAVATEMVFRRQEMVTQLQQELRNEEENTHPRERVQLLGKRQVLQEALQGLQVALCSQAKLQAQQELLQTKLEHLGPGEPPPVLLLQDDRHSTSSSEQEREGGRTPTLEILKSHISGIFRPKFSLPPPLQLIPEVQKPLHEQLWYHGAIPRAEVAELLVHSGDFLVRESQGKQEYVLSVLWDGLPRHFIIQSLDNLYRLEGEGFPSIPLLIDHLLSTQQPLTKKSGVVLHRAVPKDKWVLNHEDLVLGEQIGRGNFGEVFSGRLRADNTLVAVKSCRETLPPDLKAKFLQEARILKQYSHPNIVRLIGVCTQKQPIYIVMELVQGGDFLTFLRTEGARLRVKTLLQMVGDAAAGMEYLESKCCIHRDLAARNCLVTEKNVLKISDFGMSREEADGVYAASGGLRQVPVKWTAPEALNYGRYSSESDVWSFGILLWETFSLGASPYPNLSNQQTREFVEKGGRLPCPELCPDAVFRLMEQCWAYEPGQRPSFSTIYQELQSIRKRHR

Sequence	phosphorylation enrichment [1]	phosphorylation enrichment [2]	phosphorylation enrichment [3]	phosphorylation enrichment [4]	phosphorylation enrichment [5]	phosphorylation enrichment [6]	phosphorylation enrichment [7]	phosphorylation enrichment [8]	phosphorylation enrichment [9]	phosphorylation enrichment [10]	phosphorylation enrichment [11]	phosphorylation enrichment [12]	phosphorylation enrichment [13]	SH2 binding enrichment [14]	SH2 binding enrichment [15]	SH2 binding enrichment [16]
NTPNAYLRVNV [ADD2_Y440_T439A]	0.868	0.463	0.465	0.437	0.667	0.405	0.934	0.437	0.469	0.806	0.404	0.706	0.391	0.856	1.12	0.499
NTQRPYFKGGG [TYROBP_Y111_YF]	0.533	0.429	0.372	0.364	0.467	0.437	0.613	0.428	0.326	0.904	0.454	0.574	0.461	1.04	1.02	0.619
NTYENYWPFYQ [GATM_Y103_K102N]	2.72	17.2	22.2	14.3	12.4	8.56	4.54	9.01	7.34	5.55	9.93	2.79	7.27	9.03	1.81	2.78
NVDGKYSYLKV [GRM3_Y478_G475D]	0.705	0.569	0.59	0.563	0.507	0.515	0.878	0.444	0.554	0.825	0.559	0.557	0.432	0.752	1.35	3.85
NWGSPYKSDGC [ZNF347_Y261_N264D]	0.864	0.486	0.51	0.562	0.522	0.394	0.864	0.4	0.442	0.673	0.345	0.723	0.397	0.768	0.587	0.405
PADCRYFTFPQ [GAMT_Y222_A224T_YF]	1.1	0.613	0.483	1.2	1.09	0.68	1.53	0.61	0.761	2.88	1.66	0.944	2.58	1.33	1.78	2.07
PATINYLFEKG [NDUFS8_Y84_P85L]	0.754	0.541	0.529	0.796	0.963	0.43	0.891	0.357	0.562	0.703	0.36	0.293	0.435	1.05	0.663	0.611
PDGHEYIFVDP [PDGFRA_Y572_YF]	2.01	0.644	0.719	2.86	1.99	0.576	1.04	0.712	0.54	0.73	0.311	0.466	0.495	0.662	0.761	1.65
PDMHSYVVRYN [GRIN2D_Y732_M733V]	1.13	0.787	0.723	0.56	0.844	0.434	1.13	0.554	0.721	1.04	0.413	0.694	0.603	0.812	0.825	0.544
PFDAEYGGGGG [AKR1B10_Y316_N313D]	1.81	0.843	1.48	1.16	1.09	0.784	1.5	1.13	1.14	1.66	0.783	1.31	0.918	0.747	0.798	0.378
PFTDPYFDFEI [ZC3H18_Y371_A368T_YF]	2.52	0.835	0.64	16.2	12.4	2	1.88	2.06	1.17	2.84	0.898	1.03	5.82	1.14	0.815	0.649
PGIRMYQVQYN [LRFN1_Y454]	1.06	0.93	0.92	0.67	0.863	0.446	1.39	0.815	0.503	1.24	0.764	0.995	0.727	1.22	1.37	1.02
PGNIVYSSLCG [BCOR_Y90]	1.38	0.914	0.987	0.892	1.02	1.18	1.62	3.13	5.25	1.65	1.6	1.83	5.73	0.875	1.51	0.579
PHQTIYGALMI [FGF23_Y70_S71G]	0.849	0.679	0.711	0.57	0.838	3.41	1.07	10.6	7.87	0.721	0.796	1.36	5.96	0.75	0.599	0.341
PIDLYYLMDLS [ITGB2_Y131]	6.05	13.5	12.5	17.4	18.6	9.5	4.2	8.8	7.58	8.57	13.3	1.09	6.67	0.922	0.911	0.67
PIPAAYNRFDQ [CDC73_Y290_YF]	0.513	0.643	0.426	0.456	0.643	0.485	0.778	0.451	0.446	0.833	0.509	0.357	0.303	0.792	0.648	0.579
